Assay results: publication doi:10.1101/2021.06.09.447696, “A dual allosteric pathway drives human mitochondrial Lon” (bioRxiv, 2021)
Numbering of substitutions follows the chain as printed. Numbers in names are those of the source.

T1: human mitochondrial Lon, full-length mature form (68-959), wild type (human, UniProt P36776 68-959)
T1 construct: human mitochondrial LonP1, mature protein, residues 68-959 of UniProt P36776; Homohexamer in the cryo-EM structure; vector pNIC28-Bsa4; also called LonP1; wt-Lon; not shown: His6, N-terminal, cleaved
T1 sequence (looked up): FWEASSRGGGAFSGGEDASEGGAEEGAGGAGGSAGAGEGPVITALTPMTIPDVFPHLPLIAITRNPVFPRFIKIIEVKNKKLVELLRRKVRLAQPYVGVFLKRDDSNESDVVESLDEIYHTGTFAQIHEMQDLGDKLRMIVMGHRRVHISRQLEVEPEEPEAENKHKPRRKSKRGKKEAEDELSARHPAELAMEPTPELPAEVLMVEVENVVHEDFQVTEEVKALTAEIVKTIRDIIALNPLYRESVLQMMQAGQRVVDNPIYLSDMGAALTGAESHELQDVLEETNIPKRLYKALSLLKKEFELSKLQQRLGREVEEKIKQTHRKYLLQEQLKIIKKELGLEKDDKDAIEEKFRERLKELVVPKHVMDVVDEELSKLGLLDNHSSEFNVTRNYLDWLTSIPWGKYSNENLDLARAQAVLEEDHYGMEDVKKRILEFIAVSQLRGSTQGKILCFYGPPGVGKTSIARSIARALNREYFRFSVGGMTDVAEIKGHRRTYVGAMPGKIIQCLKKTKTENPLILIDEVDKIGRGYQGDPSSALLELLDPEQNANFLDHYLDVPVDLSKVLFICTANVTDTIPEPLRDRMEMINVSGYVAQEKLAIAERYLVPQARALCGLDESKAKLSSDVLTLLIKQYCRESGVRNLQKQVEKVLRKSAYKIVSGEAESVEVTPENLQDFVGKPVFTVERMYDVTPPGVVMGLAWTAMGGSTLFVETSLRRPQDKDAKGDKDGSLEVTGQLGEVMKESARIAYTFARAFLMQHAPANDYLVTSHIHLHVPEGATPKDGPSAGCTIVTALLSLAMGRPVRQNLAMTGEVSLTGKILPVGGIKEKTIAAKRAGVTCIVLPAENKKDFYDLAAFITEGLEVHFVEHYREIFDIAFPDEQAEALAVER

B1: mitochondrial transcription factor A, mature (amino acids 43-246) (natural protein, UniProt Q00059 43-246, looked up)
chain: SSVLASCPKKPVSSYLRFSKEQLPIFKAQNPDAKTTELIRRIAQRWRELPDSKKKIYQDAYRAEWQVYKEEISRFKEQLTPSQIMSLEKEIMDKHLKRKAMTKKKELTLLGKPKRPRSAYNVYVAERFQEAKGDSPQEKLKTVKENWKNLSDSEKELYIQHAKEDETRYHNEMKSWEEQMIEVGRKDLLRRTIKKQRKYGAEEC
notes: mitochondrial transcription factor A (TFAM), mature, amino acids 43-246; also called TFAM; substrate; not shown: His6, N-terminal, cleaved
B2: human mitochondrial Lon (68-959) G106P, R563W, K594M (enzyme, UniProt P36776 68-959, looked up)
chain: T1 sequence (looked up) with G39P, R496W, K527M
notes: human mitochondrial LonP1, mature protein, residues 68-959 of UniProt P36776, with the mutations G106P, R563W and K594M that arose spontaneously on cloning; also called Lon^Apo; substrate-free form of Lon; not shown: His6, N-terminal, cleaved
B3: human mitochondrial Lon (68-959) L396A (enzyme, UniProt P36776 68-959, looked up)
chain: T1 sequence (looked up) with L329A
notes: human mitochondrial LonP1, mature protein, residues 68-959 of UniProt P36776, with L396A; also called L396A Lon mutant; Lon L396A; not shown: His6, N-terminal, cleaved
B4: human mitochondrial Lon (68-959) K898A (enzyme, UniProt P36776 68-959, looked up)
chain: T1 sequence (looked up) with K831A
notes: human mitochondrial LonP1, mature protein, residues 68-959 of UniProt P36776, with K898A; The substrate is trapped as a covalent ester intermediate on S855; also called Lon^K898A; substrate-trapped Lon; not shown: His6, N-terminal, cleaved

How the values were obtained:
[1] = target: B4; assay: cryo-EM structure; 0.5-0.7 mg/ml Lon construct in 20 mM HEPES pH 7.5, 100 mM NaCl, 10 mM MgCl2, 3% glycerol, 2 mM ATP added to 0.2 mg/ml TFAM, 30 s at room temperature, then vitrified; single-particle reconstruction; settings: both partners purified
[2] = target: T1, human mitochondrial Lon, full-length …; assay: as above; settings: both partners purified
[3] = target: the molecule itself; assay: as above
[4] = target: the molecule itself; assay: SEC; Superose 6 Increase 3.2/300; 25 mM Tris-HCl pH 8.0, 10% glycerol, 1 mM DTT, 50 mM NaCl, 2 mM ATP; protein incubated at 37°C for 10 min with 2 mM ATP and 10 mM MgCl2; fractions analysed by SDS-PAGE

Binder: B1
binding result [1]: binds
binding result [2]: binds

Binder: B2
binding result [3]: binds

Binder: B3
binding result [4]: binds

Binder: B4
stoichiometry N [3]: 6
